Laboratory results from article PMC9890520.
pKd: −log10 of the molar value.

Key:
[1] = molecular target: human EGFR.Fc (extracellular domain of EGFR) (human) (UniProt P00533); test: SPR
[2] = molecular target: human HER2.Fc (extracellular domain of HER2) (human) (UniProt P04626); test: SPR

Substance | pKd [1] | koff [1] [s⁻¹] | kon [1] [M⁻¹ s⁻¹] | pKd [2] | koff [2] [s⁻¹] | kon [2] [M⁻¹ s⁻¹]
Z_(EGFR:1907) (designed binder) | 8.15 | 0.000666 | 94300 | – | – | –
Z_(HER2:342) (designed binder) | – | – | – | 10.12 | 0.000111 | 1.45e+06
Z_(HER2:342).BirA* (designed binder) | – | – | – | 10.96 | 1.14e-07 | 10400
